Measurements as given in the nanobody polyreactivity screen of Harvey et al. (2022).

Test: yeast display, Sf9 membrane polyspecificity reagent, FACS + sequencing; frameworks hold sequencing errors
Procedure, shortened: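 Polyreactivity labels are assigned by the sorting gate from which each nanobody was recovered. The gates were low and high (top ~1%), set on anti-HA fluorescence for expression and streptavidin fluorescence for reagent binding. Before sorting, galactose-induced (36–48 hours) yeast display cells were stained for 1 hour at 4 °C with 10% biotinylated, detergent-solubilized Sf9 membrane reagent.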

| Sequence | polyreactivity (PSR sort gate) |
| --- | --- |
| QVQLVESGGGLVQAGGSLRLSCAASGSIFRWYAMGWYRQAPGKERELVAAITWSASRTYYADSVKGRFTISRDNAKNTVYLQMNSLKPEDTAVYYCAADHDGPYAGYDSWGQGTQVTVSS | low polyreactivity |
| QVQLVESGGGLVQAGGSLRLSCAASGSIFRYNTMGRYRQAPGKERELVATITRRGGSTYYADSVKGRFTISRDNAKNTVYLQMNSLKPEDTAVYYCNADNFGGPYNYWGQGTQVTVSS | low polyreactivity |
| QVQLVESGGGLVQAGGSLRLSCAASGSIFRYYAMGWYRQAPGKERELVAAIRVSTGSTSYADSVKGRFTISRDNAKKSVYLQMNSLIPAVTAVYYCNARSRLVIAYRQHNYWGQGTQVTVSS | high polyreactivity |
| QVQLVESGGGLVQAGGSLRLSCAASGSIFRYYAMGWYRQAPGKERELVAAISRRGSSTYYADSVKGRFTISRDNAKNTVYLQMNSLNPEDTAVYYCAAGDFKQYDYWGQGTQVTVSS | high polyreactivity |
| QVQLVESGGGLVQAGGSLRLSCAASGSIFRYYAMGWYRQAPGKERELVAAISSNGGSTYYADSVKGRFTISRDNAKNTVYLQMNSLKPEDTAVYYCNAVKVGPYYFRSDYWGQGTQVTVSS | high polyreactivity |
| QVQLVESGGGLVQAGGSLRLSCAASGSIFRYYAMGWYRQAPGKERELVAAITSSAGSTYYADSVKGRFTISRDNAKNTVYLQMNSLKPEDTAVYYCNALVQGKEYYWGQGTQVTVSS | high polyreactivity |
| QVQLVESGGGLVQAGGSLRLSCAASGSIFRYYAMGWYRQAPGKERELVASISWSGTSTNYADSVKGRFTISRDNAKNTVYLQMNSLKPEDTAVYYCNKVRWGRYYTRYDYWGQGTQVTVSS | high polyreactivity |
| QVQLVESGGGLVQAGGSLRLSCAASGSIFRYYAMGWYRQAPGKERELVASITRRGGSTYYADSVKGRFTISRDNAKNTVYLQMNSLKPEDTAFYYCAAHKTYVREYYWGQGTQVTVSS | high polyreactivity |
| QVQLVESGGGLVQAGGSLRLSCAASGSIFRYYAMGWYRQAPGKERELVATISWSGGGTYYADSVKGRFTISRDTAKNTVYLLMNSLKPDVTGVYYCAAVGTVPRKQRYHSYIDYDYWGQGTQVTVSS | low polyreactivity |
| QVQLVESGGGLVQAGGSLRLSCAASGSIFRYYAMGWYRQAPGKERELVAVITGTGGSTYYADSVKGRFTISRDNAKNTVYLQMNSLKPEDTAVYYCNVYRPWGWFDYWGQGTQVTVSS | high polyreactivity |
| QVQLVESGGGLVQAGGSLRLSCAASGSIFRYYAMGWYRQAPRKERELVAAISSNGGSTSYADSVKGRFTISRDNAKNTVYLQMNSLIPEYTAVYYCNTQFRYPQKYDYWGQGTQVTVSS | high polyreactivity |
| QVQLVESGGGLVQAGGSLRLSCAASGSIFRYYDMGWYRQAPGKERELVAAISTSGVRTNYADSVKGRFTISRDNAKNTVYLQMNSLKPEDTAVYYCAARSQIYYRYRSYGYWGQGTQVTVSS | high polyreactivity |
| QVQLVESGGGLVQAGGSLRLSCAASGSIFRYYTMGWYRQAPGKERELVASISRGGNTYYADSVKGRFTISRDNAKNTVYLQMNSLKPEDTAVYYCNVRLSYSYISQSDWNFDYWGQGTQVTVSS | low polyreactivity |
| QVQLVESGGGLVQAGGSLRLSCAASGSIFRYYVMGWSRQAPGKERELVASISYSVGRTYYADSVKGRFTISRDNAKNTVYLQMNCLKPEDTAVYYCAADRYWPYYSAYYTSYRMDYWGQGTQVTVSS | high polyreactivity |
| QVQLVESGGGLVQAGGSLRLSCAASGSIFSAYAMGWYRQAPGKERELVAAISSRGSRTYYAYSVKGRFTISRDYAKNSVYLQMNSLKPEDTAVYYCAADPFSSYYKMDYWGQGTQVTVSS | high polyreactivity |
| QVQLVESGGGLVQAGGSLRLSCAASGSIFSAYVMGWYRQAPGKERELVAAINRGGNTYYADSVKGRFTISRDNAKNTVYLQMNSLKPEDTAVYYCNAQWYYLRYRYDYWGQGTQVTVSS | high polyreactivity |
| QVQLVESGGGLVQAGGSLRLSCAASGSIFSAYVMGWYRQAPGKERELVAAITRSGGSTYYADSVKGRFTISRDNAKNTVYLQMNSLKPEDTAVYYCAVDYLLHYYSYIEDYWGQGTQVTVSS | low polyreactivity |
